Results as given in patent publication US8445444B2, “Compositions and methods for diagnosing, treating, and preventing prostate conditions” (Phigenix, Inc., priority 2007, dated 2013).

What was measured:
Type in all cases: cell-based, human
DU145 [1] = experiment: MTT cell viability assay
Description: (§1) MTT Cell Viability Assay: To examine the effects of DEFB1 on cell growth, metabolic 3-[4,5-dimethylthiazol-2-yl]-2,5 diphenyl tetrazolium bromide (MTT) assays were performed. PC3, DU145 and LNCaP cells co-transfected with pVgRXR plasmid and pIND/DEFB1 construct or empty pIND vector were seeded onto a 96-well plate at 1-5×10^3 cells per well. Twenty-four hours after seeding, fresh growth medium was added containing 10 μM Ponasterone A daily to induce DEFB1 expression for 24-, 48- and 72 hours after which the MTT assay was performed according to the manufacturer's instructions (Promega). Reactions were performed three times in triplicate.
(§2) MTT Cytotoxicity Assay: DU145, PC3 and LNCaP cells (1×105) were transfected with 0.5 μg of the PAX2 siRNA pool or control siRNA pool using Codebreaker transfection reagent according to the manufacturer's protocol (Promega). Next, cell suspensions were diluted and seeded onto a 96-well plate at 1-5×10^3 cells per well and allowed to grow for 2-, 4- or 6 days. After culture, cell viability was determined by measuring the conversion of 3-[4,5-dimethylthiazol-2-yl]-2,5 diphenyl tetrazolium bromide, MTT (Promega), to a colored formazan product. Absorbance was read at 540 nm on a scanning multiwell spectrophotometer.
(§3) MTT cell viability assay: To examine the effects of hBD-1 on cell growth, metabolic 3-[4,5-dimethylthiazol-2-yl]-2,5-diphenyl tetrazolium bromide (MTT) assay was performed. DU145, LNCaP, PC3 and PC3/AR+ cells co-transfected with pvgRXR plasmid and pIND/hBD-1 construct or control pvgRXR plasmid were seeded onto a 96-well plate at 1-5×10^3 cells per well. Twenty-four hours after seeding, fresh growth medium was added containing 10 μM Pon A daily to induce hBD-1 expression for 24, 48 and 72 h after which the MTT assay was performed according to the manufacturer's instructions (Promega). Reactions were performed three times in triplicate.
(§4) MTT cytotoxicity assay: DU145, PC3 and LNCaP cell suspensions were diluted and seeded onto a 96-well plate at 1-5×10^3 cells per well. Next the cells were transfected, according to the manufacturer's protocol (Promega), with 5 pg/cell of the PAX2 siRNA pool, control siRNA pool, or the Codebreaker transfection reagent alone. All cells were allowed to grow for 2-, 4- or 6 days after treatment. Cell viability was then determined by measuring the conversion of 3-[4,5-dimethylthiazol-2-yl]-2,5 diphenyl tetrazolium bromide, MTT (Promega) to a colored formazan product. Absorbance was read at 540 nm on a scanning multi-well spectrophotometer.

LNCaP [2] = experiment: MTT cell viability assay; settings: DEFB1 (hBD-1) induction 24-72 h
Description: as §1, §2, §3, §4

PC3 [3] = experiment: MTT cell viability assay
Description: as §1, §2, §3, §4

PC3/AR+ = experiment: MTT cell viability assay; settings: PC3/AR+ compared with PC3
Description: as §3

DU145 [4] = experiment: Phase contrast microscopy of cell growth; settings: DU145, 48 h DEFB1 induction
Description: (§5) Microscopic Analysis: Cell morphology was analyzed by phase contrast microscopy. DU145, PC3 and LNCaP cells containing no vector, empty plasmid or DEFB1 plasmid were seeded onto 6 well culture plates (BD Falcon, USA). The following day plasmid-containing cells were induced for a period of 48 h with media containing 10 μM Ponasterone A, while control cells received fresh media. The cells were then viewed under an inverted Zeiss IM 35 microscope (Carl Zeiss, Germany). Phase contrast pictures of a field of cells were obtained using the SPOT Insight Mosaic 4.2 camera (Diagnostic Instruments, USA). Cells were examined by phase contrast microscopy under 32× magnification and digital images were stored as uncompressed TIFF files and exported into Photoshop CS software (Adobe Systems, San Jose, Calif.) for image processing and hard copy presentation.
(§6) Phase Contrast Microscopy: The effect of PAX2 knock-down on cell growth was analyzed by phase contrast microscopy. Here, 1-2×10^4 cells were seeded onto 6 well culture plates (BD Falcon, USA). The following day cells were treated with media only, negative control non-specific siRNA or PAX2 siRNA and allowed to incubate for six days. The cells were then viewed under an inverted Zeiss IM 35 microscope (Carl Zeiss, Germany) at 32× magnification. Phase contrast pictures of a field of cells were obtained using the SPOT Insight Mosaic 4.2 camera (Diagnostic Instruments, USA).
(§7) Phase contrast microscopy: The effect of PAX2 knockdown on cell number was analyzed by phase contrast microscopy. Here, 1-2×10^4 cells were seeded overnight onto six-well culture plates (BD Falcon, USA). Next the cells were treated with media only, negative control non-specific siRNA or PAX2 siRNA and allowed to incubate for 6 days. The cells were then viewed under an inverted Zeiss IM 35 microscope (Carl Zeiss, Germany). Phase contrast pictures of a field of cells were obtained using the SPOT Insight Mosaic 4.2 camera (Diagnostic Instruments, USA).

LNCaP [5] = experiment: Phase contrast microscopy of cell growth; settings: 48 h DEFB1 induction
Description: as §5, §6, §7

PC3 [6] = experiment: Phase contrast microscopy of cell growth; settings: PC3, 48 h DEFB1 induction
Description: as §5, §6, §7

How did the relative cell viability (DU145 [1]; DU145, 24 h DEFB1 (hBD-1) induction, 10 μM Ponasterone A) turn out when “DEFB1: human beta defensin-1 expressed from the ecdysone inducible pIND/DEFB1 construct, induced with Ponasterone A (DHYNCVSSGGQCLYSACPIFTKIQGTCYRGKAKCCK; UniProt P60022 33-68, looked up)” was run?
The relative cell viability was 72%.

What about the relative cell viability (DU145 [1]; DU145, 48 h DEFB1 (hBD-1) induction) of the same substance?
Its relative cell viability is 49%.

What about the relative cell viability (DU145 [1]; DU145, 72 h DEFB1 (hBD-1) induction) of the same substance?
Its relative cell viability is 44%.

What about the “effect on cell viability” value (LNCaP [2]) of the same substance?
The value was “no significant effect”.

And the relative cell viability (PC3 [3]; PC3, 24 h DEFB1 (hBD-1) induction)?
The relative cell viability was 56%.

And the relative cell viability (PC3 [3]; PC3, 48 h DEFB1 (hBD-1) induction)?
The relative cell viability was 37%.

What about the relative cell viability (PC3 [3]; PC3, 72 h DEFB1 (hBD-1) induction) of the same substance?
The relative cell viability was 29%.

What about the “hBD-1 cytotoxicity with ectopic AR expression” value (PC3/AR+) of the same substance?
Its value is “no difference between PC3/AR+ and PC3 cells”.

And the cell number (DU145 [4])?
Its cell number is “significant reduction in cell number”.

What about the cell proliferation (LNCaP [5]) of the same substance?
Its cell proliferation is “no effect on cell proliferation”.

And the cell number (PC3 [6])?
Its cell number is “significant reduction in cell number”.
